# Data taken from article PMC8537452.
# Legend:
# [1] = target: long carboxyl terminus (CTL) of rat Cav1.3L (rat)
# [2] = target: long carboxyl terminus (CTL) of rat Cav1.3L (rat); remark: listed apart in the source
# [3] = target: long carboxyl terminus (CTL) of rat Cav1.3L (rat); remark: listed apart in the source
# long carboxyl terminus (CTL) of rat Cav1.3L (rat), sequence (P27732 1460-2155): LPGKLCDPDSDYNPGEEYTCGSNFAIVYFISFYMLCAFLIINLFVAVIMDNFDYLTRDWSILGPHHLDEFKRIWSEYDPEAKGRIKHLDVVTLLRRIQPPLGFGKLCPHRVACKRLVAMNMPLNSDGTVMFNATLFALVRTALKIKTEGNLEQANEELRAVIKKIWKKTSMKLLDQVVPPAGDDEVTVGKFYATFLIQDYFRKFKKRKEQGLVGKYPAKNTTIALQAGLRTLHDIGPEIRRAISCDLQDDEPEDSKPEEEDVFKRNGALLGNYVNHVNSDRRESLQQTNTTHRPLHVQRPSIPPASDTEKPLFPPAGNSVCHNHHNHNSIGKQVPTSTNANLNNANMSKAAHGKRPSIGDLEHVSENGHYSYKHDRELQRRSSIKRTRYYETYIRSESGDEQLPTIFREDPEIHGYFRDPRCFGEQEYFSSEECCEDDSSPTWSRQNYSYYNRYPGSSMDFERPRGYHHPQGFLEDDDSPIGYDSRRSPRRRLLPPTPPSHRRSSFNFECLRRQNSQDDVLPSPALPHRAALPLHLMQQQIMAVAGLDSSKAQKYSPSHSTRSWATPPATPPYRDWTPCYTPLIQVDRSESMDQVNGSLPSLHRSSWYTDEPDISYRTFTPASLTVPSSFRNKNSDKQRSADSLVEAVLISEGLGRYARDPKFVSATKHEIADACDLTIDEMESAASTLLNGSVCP
maximal chord conductance of Cav1.3L channels without vs. with Snapin2 in HEK-293 cells [1],average peak current amplitude at −10 mV of Cav1.3L/β3 with vs. without Snapin2 in Xenopus oocytes [2],maximal chord conductance of Cav1.3L channels without vs. with Snapin2 in Xenopus oocytes [2],maximal normalized chord conductance of Cav1.3L without or with Snapin1 in HEK-293 cells [3],Molecule
1.86 nS/pF,-2410 nA,28.1 μS,–,rat Snapin2 (natural protein)
–,–,–,2.09 nS/pF,rat Snapin1 (natural protein) MAAAGSAAVSGAGTPVAGPTGRDLFAEGLLEFLRPAVQQLDSHVHAVRESQVELREQIDNLATELCRINEDQKVALDLDPYVKKLLNARRRVVLVNNILQNAQERLRRLNHSVAKETARRRAMLDSGVYPPGSPSK
